Results reported in the supplement of paper PMC12455559.

Test: purified protein yield per well (BCA); higher = higher soluble expression
Method in brief: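 Candidate enzymes were made in 2 mL autoinduction cultures of E. coli C41(DE3) with 100 µg/mL kanamycin, at 37 °C for 2 h and then 18 °C for 40 h, and purified with Ni-charged magnetic beads and SUMO protease cleavage. The Pierce Rapid Gold BCA kit gave purified protein yield per well. Values lower than 25 ug (0.1 mg/mL) are below the detection threshold.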

Sequence: QSNPYQRGPAPTASSLEASRGPLAISQFTVSRPSGYRAGTVYYPTNAGGTVGAIAVVPGYTAYQSDINWWGPRLASWGFVVITIDTNSTLDQPSSRSRQQLAALDQVAALSRTSSSPIYNKVDTSRMGVMGWSMGGGGSLISTENRPSLKASIPFAPWNSTSSFSSVVTPTFIIACQSDIIAPVASHADDFYDSLSRPPKMFLEIRGGSHYCANSSNNDKGLLGSKGVAWMKRYIDNDTRFTSYACSNPNTLAVSDFRTARCS [ESM104]
- purified protein yield per well: < 25 µg

Sequence: QSNPYQRGPNPTRAALMTDGPYAVATASVWPYIYGFGGGTIYYPTGTTETFGGIAVSPGFTADSTSLAWFGRRLASHGFVVIVINTNSRFDFPDSRASQLQAAIDYLRTNSPAAVRARLDENRIAVAGHSMGGGASLRASERLPWLKASVPLTPWHTDKTFSTSVPQLIIGAEWDTIAPVSSHAIPFYNNLPSSTPKVYLELNNATHFAPNTTNATISLYAISWMKRWVDNDTRYNQFLCGVNHTADPSISDYRTNAWTYCP [DP073]
- purified protein yield per well: < 25 µg

Sequence: QSTTPTSSALNATAGPLAVSTSTVTLASGFGGGTIYYPTTAGSYGLIALCPGFTATETSLAWLARRLASWGFVVVNMNTTTTMDQPASRATQLMAALKYALNSSSSAVRARIDPSRLAVAGHSMGGGGTLIAARDNPTLKAGYPLTPWNSSTNFSGVTVPTMIIGSDGDTVAPVAQHARPFYASLPAATFKAYGELNNATHFTPNSTSTPIGRYGVAWMKRFLDGDTRYSTFLCGSEHAAYATSLVFDRYNQNCPY [ESM187]
- purified protein yield per well: < 25 µg

Sequence: QSYVHGPDPTTAALETTGPYAVSNTKIAAPSGYGGGTVYYPTTNTEGAFAVVSVTPGFTEKQSAINWLGPLLASHGFVVVTIDTKTALDAPSSRAKQMIAALKQVSGLSANSTSPFAGRVDGTRQAVMGHSMGGGGSLDAARDNPTLKASIPMAPWETVKNYSTMTVPTLIVSCESDTIAPVASHANKFYDSFTPTLNKALLEMKGVGHSCTNSTTSAALKAVIGKYSISWLKRFADNDNRYSDFLCGASHQADVSGSLISTYKENCPY [DP066]
- purified protein yield per well: < 25 µg

Sequence: QTNPYARGPNPTASSLEASTGPFAYRSFTVSRPSGYGAGTVYYPTNAGGTVGAIAIVPGYTARQSSINWWGPRLASHGFVVITIDTNSTLDQPSSRSRQQMAALQQVASLNSTSSSPIYGKVDTSRMGVMGWSMGGGGSLISARDNPSLKAAAPQAPWNTSSSFSSMTVPTLIFACESDSIAPVNSHASPMYNSMRSNPRQYLEINNGSHSCANSGNSNQALIGKKGVAWMKRYMDNDTRYSTFACQNPNSTRVSDFRVANCS [ESM094]
- purified protein yield per well: < 25 µg

Sequence: QTNPYARGPNPTDSLLEASRGPFSISSFTVSRPSGYGAGTVYYPTNAGGTVGAIAIVPGYTARQSSINWWGPRLASHGFVVITIDTNSTLDQPSSRSRQQMAALSQVVSLSRTSTSPIYNKVDASRLGVMGWSMGGGGSLISARDNPSIKAAAPQAPWNTSSNFSSMTVPTLIFACENDSIASTSSHASPMYNSMRLNPRQYFEINNGSHSCANSGNSNQALIGKRGVAWMKRFMDNDTRYTSFACSNPNTFSVSEFRTANCS [ESM180]
- purified protein yield per well: < 25 µg

Sequence: QTNPYARGPNPTRDSLEASRGPFAFSSFTVSRPSGYAGGTVYYPTNAGGTVGAIAVVPGFSARQSSINWWGPRLASHGFVVITIDTNSSFDQPPSRSRQQLAALDQVATLARTSGSPIYNKVDTTRMGVMGSSMGGGGSMISAQNRPSLKAAIPQSPSVSSTNFSSVVVPTLIFACENDTVPPGGSQAVAIYNSMMLNPKQLLEIAGGSPFCGNSN [ESM182]
- purified protein yield per well: < 25 µg

Sequence: QTNPYERGPAPTTASLEASRGPFSISSFTVSRPSGYGAGTVYYPTNAGGTVGAIAIVPGFLARQSSINWWGPRLASHGFVVITIDTNSTLDQPASRSRQQLAALDQVAALARTSSSPIYNRVDTTRMGVMGWSMGGGGTLISAQNRPSIKAAAPQAPYNSSTNFSSVTVPTLIFACENDTVAPVNRHASPFYSSMSRNSKQYLEINGGSHSCANSGNSNQPLIGKKGVAWMKRFMDNDTRYTPFACANPNSTRVSEFRTANCS [ESM073]
- purified protein yield per well: < 25 µg

Sequence: QTNPYERGPAPTTSSLEASRGPFSYQSFTVSRPSGYRAGTVYYPTNAGGPVGAIAIVPGFTARQSSINWWGPRLASHGFVVITIDTNSTLDQPDSRSRQQMAALSQVATLSRTSSSPIYNKVDTSRLGVMGWSMGGGGSLISARNNPSIKAAAPQAPWSASKNFSSLTVPTLIIACENDTIAPVNQHADTFYDSMSRNPREFLEINNGSHSCANSGNSNQALLGKKGVAWMKRFMDNDRRYTSFACSNPNSYNVSDFRVAACN [ESM158]
- purified protein yield per well: < 25 µg

Sequence: QTPQAPTAASLNATSGPLSVSTQSVSSLSARGFGGGTVYYPTTAGRYGAVAISPGFTATQSSVAWLGRRLASHGLVVITINTNSTLDQPASRATQLMAALTYVTSASGTTVQSRVDPQRLAVAGHSMGGGGALIAARDNPTLKASLPLTPWNTTTNFSGIRVPTLIVGADGDTVASVTAHARPFYASLPSNTFKAYAELNSASHFTPNSANTPIGRYGVTWLKRFVDNDSRYSPFLCGAEHQAYATAQVFDRYQQNCPY [ESM188]
- purified protein yield per well: < 25 µg

Sequence: QTPTRESLSRQGPYQVAYYSSLPDVPEYAGATLYFPANKGDSFGGVAIAPGFIETQENIAWWGEYLASYGFAVLTLDTNSPRDIPALRADALMAAVEIIRGENTRMGSPLRGKIDVTRMAIMGHSMGGGGTLLAANAHSDQLKAAIPFTPWLPDADFSAVAVPTLVIAGEIDRIAAAAGHAWPHFQTLPDNIPKMYLEIKGGNHFIANSVTDNEGLAPNIDVHDLVGSMS [TEP027]
- purified protein yield per well: < 25 µg

Sequence: QTSAPTSASLNASSGPLSVSTASVTLPRGFGGGTIYYPTVAAKYGVIAISPGFTATQSSIAWLGRRIATHGFVVITINTNTTLDQPDSRATQLVAALNHVLNSSGTAVRSRIDPARLAVAGHSMGGGGSLIAARDNPTLKASYPMTPWNISSNFSTVRVPTMIIGADGDTVAPVGTHARPFYASLPSSTFKAYGELNGATHFAPNTTSTPIGRYAVAWMKRFVDGDTRYSPFLCGAQHTSYATGLVFDRYNQNCPY [ESM054]
- purified protein yield per well: < 25 µg

Sequence: QTSAPTSASLNATAGPLSVSTASVLVPVGFGGGTIYYPTVAGQYGVIAISPGFTATQSSIAWLGRRIATHGFVVITLNTNTTLDQPDSRATQLLAALRYVTNSSGTAVRSRIDATRLAVAGHSMGGGGSLIAARDNPTLKASYPLTPWNISTNFSTVRVPTLIIGADGDTIAPVASHARPFYASLPSTTFKAYGELNNATHFTPNSTSTPIGRYGVAWFKRFLDGDTRYSPFLCGAQHTAYATALVFDRYNQNCPY [ESM141]
- purified protein yield per well: < 25 µg

Sequence: QTSAPTSSSLNATSGYLSVASENVSSLSASGFGGGTIYYPSTSGQYGLIAISPGFTATESSVAWIGRKLASHGFVAIVINTNTTLDQPASRARQLRAALDHARLRASSTVRSRIDASRQAVAGHSMGGGGSLIAAEDDPTLKASFPLTPWNTTTSFTNVRVPTMIFGADGDTIAAVAAHARPFYASIPSSTKKAYAELNGATHFTPNSRNEAIGRYGVAWMKRFMDNDTRYSTFLCGSEHNSYNTSLRFDRYNSNCPY [ESM123]
- purified protein yield per well: < 25 µg

Sequence: QTSDPTSASLNASAGPLSVSTASVTAPRGFGGGTIYYPTTQARYGVIAISPGFTATETSIAWLGRRIATHGFVVITLNTLTTLDQPASRANQLMAALTYVVNSSSSAVKARIDTARLAVAGHSMGGGGALIAARDNPTLKASYPLTPWNSSTSFSTVRVPTMIVGADGDTIAPVATHARPFYASLPSATSKAYGELNNGTHFSPNSTNTPIGRYGVAWMKRFVDGDTRYSTFLCGTEHTRYATALVFDRFNQNCPY [ESM191]
- purified protein yield per well: < 25 µg

Sequence: QTSDPTSTSLNATSGPLSISSTSVSSFSARGFGGGTIYYPSASGRYGVVAISPGYTARQSSIAWLGRRLASHGFVVITIDTNSTLDQPPSRATQLMAALDHVVNRASSTVRSRVDAARLAVAGHSMGGGGSLIAARDNPSLRAVYPMTPWSVSKDFSAVRVPTMIIGADNDSVASVVTHARPFYSSLAASLPKAYGELNNASHFAPNTTNTPIGRYAVTWMKRFVDGDTRYSPFLCGTPHNQYATSQVFARYQQNCPY [ESM134]
- purified protein yield per well: < 25 µg

Sequence: QTSPDCSAITISSSTNTGVNLVSTYLESDGIRNGTDYYGSTIYYPQNTTSILASIIIVPGYLNFESSMQNWGPFLASHGIVCMTIGTNNIFDLVNDRKEALQDALISLKAENTRVNSPLFNKLNTSRVALAGWSMGGGGAQLAAVEDSTIKAIIALCPWIDPMQISVNSLIHDVPVLFFSGQFDAVAPSSTHANIHYNYTPSTTDKLIYEISSGGHTVANVPSGGQGEVGRMALSWLKKYLIEDYCYCPLLLDTPLTASIYQTNVTCSTYGCTDSIALNYDPLATTDDGTCIYCVYGCTDSTSVNYAPLAICDDGTCIASVYGCTNATACNYYAGANINDGSCEWTSCNPTSCGASAITGLGVTNVIHDRVTLTFDNMNTYDTSGAQICRVDQLRIKYREVGTSSWSQKNMAAPTGYDPTTGICNSTQNTDKLVLGLSGSTTYEWEMRVWYCVTGATAWVVGPDFTTADNCPNIGSFTAYGSNPIRATFDWDDSNGSYEFVRIKMRVDSISNPQGTDWFQVGGFGVTYGTFTKDKNGLVAGETYRAQARTWCDPNGGAYNSLSWTALATW [TEP033]
- purified protein yield per well: < 25 µg

Sequence: QTTAPTSASLNASAGPLSVSTASVTAPRGFGGGTIYYPTTQARYGVIAISPGFTATQTSIAWLGRRIATHGFVVITLNTLTTLDQPDSRANQLMAALNHVINSSSSAVKARIDTSRLAVAGHSMGGGGALIAARDNPSLKASYPLTPWNINSAFSTVRVPTMIVGADGDTVAPVGTHARPFYAALPGATSKAYGELNGATHFSPNSTNTPIGRYGVAWMKRFLDGDTRYSTFLCGTEHTRYATALVFDRYNQNCPY [ESM122]
- purified protein yield per well: < 25 µg

Sequence: QTTAPTSASLNATAGPLSIASASVSSLAASGFGGGTIYYPTTSGRFGVVAISPGYTASQSTIAWLGRRMASHGFVVITIDTNTTLDYPESRATQLRAALDHVINRASTTVRNKVDPARRAVAGHSMGGGGSLIAAEADSTLKAAYPMTPWNISENFSRVRVPTMIIGADGDTIAPVISHARPFYGSIPNTTFKAYGELNNASHFAPNTTNTPIGRYGVAWMKRFVDGDTRYSTFLCGAEHNRYNTSLVFDQYRSNCPY [ESM079]
- purified protein yield per well: < 25 µg

Sequence: QTTAPTSASLNATAGPLSVSTASVSLPRGFGGGTIYYPTTQARYGVIAISPGFTATETSIAWLGRRIATHGFVVITLNTLTTLDQPASRANQLMAALSYVVNSSTSAVKARIDTTRLAVAGHSMGGGGALIAARDNPTLKASYPLTPWNSSTSFSTVRVPTMIIGADGDTIAPVAAHARPFYASLPGATTKAYGELNGGTHFSPNSTNTPIGRYGVAWMKRFVDGDTRYSTFLCGTEHTRYASALVFDRYNQNCPY [ESM124]
- purified protein yield per well: < 25 µg

Sequence: QTTAPTSSSLNATAGPYSVSTSSVTLPVGFGGGTVYYPTQTGKYGVIAISPGFTATQSSIAWLGRRLATHGFVVLTMNTLTTLDQPASRANQLMAALNYVLNSSPSAVRSRADGTRTAVAGHSMGGGGSLIAARDYPTLKASYPMTPWSPTSNFSTVRVPTMIIGADGDTIAPVATMSRVYYQNLPSTTSKAYGELNNATHFAPNMTNTPIGRYAVTWMKRFVDSDTRYSPFLCGAPHQAYATSLVFDRYSQNCPY [ESM083]
- purified protein yield per well: < 25 µg
